Data as given in patent US9371520B2.

Molecular target: purified native cellulosome of C. thermocellum ATCC 27405 (C. thermocellum ATCC 27405) (UniProt Q06851)

Substance	hydrolysis of microcrystalline cellulose and pre-treated switchgrass (soluble reducing sugars) [fold]
wild-type (WT) BglA, β-glucosidase A from C. thermocellum, as cloned (enzyme)	2.06
BglA-CohII (chimaeric C. thermocellum β-glucosidase A fused to the type-II cohesin module of the Orf2p anchoring protein) (enzyme)	2.68
